Data: PMC11005422
One block for each substance: values may come before it.

Assays:
[1] = biological target: ClpC1 (NTD residues 1-156 removed, E284A/E622A/F440A) (Streptomyces hawaiiensis NRRL 15010); test: cryo-EM structure; ClpC1 added to the pre-formed shClpP1P2 complex with fluorescein-labeled casein and ATP; conformations A (2.94 Å) and B (3.0 Å), C1
[2] = biological target: shClpP1 (first 29 residues removed, S113A) (Streptomyces hawaiiensis NRRL 15010); test: cryo-EM structure; apo shClpP1P2, C7 symmetry imposed, 2.34 Å (free shClpP1P2 particles of the ClpC1 sample; a second reconstruction at 2.88 Å from the shClpP1P2 sample); SEC buffer 20 mM HEPES, 150 mM KCl, 5% glycerol, pH 7.5
[3] = biological target: shClpP1 alone (sample of Fig. S1A) (Streptomyces hawaiiensis NRRL 15010); test: not stated; Fig. S1A (not shown): purified proteins in solution; a shClpP1 sample was also put on cryo-EM grids
[4] = biological target: shClpP2 (first 49 residues removed, S131A) (Streptomyces hawaiiensis NRRL 15010); test: cryo-EM structure; apo shClpP1P2, C7 symmetry imposed, 2.34 Å (free shClpP1P2 particles of the ClpC1 sample; a second reconstruction at 2.88 Å from the shClpP1P2 sample); SEC buffer 20 mM HEPES, 150 mM KCl, 5% glycerol, pH 7.5

stoichiometry N [1]: 6
Substance: ClpC1 (NTD residues 1-156 removed, E284A/E622A/F440A) (enzyme)

stoichiometry N [2]: 7
Substance: shClpP1 (first 29 residues removed, S113A) (enzyme)

stoichiometry N [3]: 7
Substance: shClpP1 alone (sample of Fig. S1A) (enzyme)

stoichiometry N [4]: 7
Substance: shClpP2 (first 49 residues removed, S131A) (enzyme)
